Test results published in US20250387492A1, “HSP90-TARGETING CONJUGATES AND FORMULATIONS THEREOF” (Fusion Pharmaceuticals Inc., priority 2018, published 2025).
Values joined by “and” are separate entries in the source; they are usually repeats but may differ in a detail not shown here. Identical values can stand only once. Like-named read-outs stand apart in the source and are kept apart here.

What was measured:
[1] = system: NCI-H460 tumor-bearing mice; assay: H460 mouse tumor and plasma pharmacokinetics; format: in vivo; details: 25 mg/kg IV; 1 h; individual animals
[2] = H460 mouse tumor and plasma pharmacokinetics; format: in vivo; details: mouse, 25 mg/kg IV, mean of 3 animals
[3] = Biodistribution in H460 tumor model; details: mouse, in vivo, 5 mg/kg, Tumor Levels, 24 h
Description: (§1) In other studies, biodistribution of the conjugates was studied with H460 and H69 tumor models.

H460 tumor model mice = assay: Biodistribution in H460 tumor model; details: 5 mg/kg
Description: as §1

[4] = system: NCI-H460 tumor-bearing mice; assay: H460 mouse tumor and plasma pharmacokinetics; format: in vivo; details: 25 mg/kg IV, individual animals
Description: (§2) Conjugate accumulation at 24 and 48 h in tumor and plasma of NCI-H460 tumor-bearing mice (lung cancer). Conjugate 1 was dosed at 25 mg/kg intravenously.

[5] = H460 mouse tumor and plasma pharmacokinetics; format: in vivo; details: mouse, 25 mg/kg IV, mean of 3 animals; remark: listed apart in the source
Description: as §2

[6] = Plasma profile in male SD rats; format: in vivo, rat; details: 5 mg/kg IV; for Vd: male, SD, iv, 5 mg/kg
Description: Plasma profile for Conjugate 1 at 5 mg/kg dose (via IV) in male SD rats was obtained. Plasma profile for lutetium from Conjugate 1 was also measured.

[7] = Lu levels in tumor, kidney and liver of mice at 0.5 mg/kg
[8] = Biodistribution in healthy rat tissues; format: in vivo; details: 5 mg/kg, healthy rats; for level at time molar: rat
Description: Biodistributions of the conjugates were studied. Conjugate 1 was dosed at 5 mg/kg to healthy rats. The amount of Conjugate 1 and lutetium from Conjugate 1 in rat spleen, kidney, brain, liver and bone marrow was measured.

H69 tumor model mice = assay: Biodistribution in H69 tumor model; details: 5 mg/kg; 24 h; H69
Description: as §1

[9] = Biodistribution in H69 tumor model; details: mouse, in vivo, 5 mg/kg, Tumor Levels, 24 h, H69, 5 mg/kg; H69
Description: as §1

[10] = plasma, read-out: Compound 1 Conc. in NCI-H460 Mouse Plasma, Mean
[11] = tumor, read-out: Compound 1 Conc. in NCI-H460 Mouse Tumor, Mean
[12] = H460 and H69 tumor models, Conjugate 1 vs Conjugate 2

CCNC(=O)c1nnc(-c2cc(C(C)C)c(O)cc2O)n1-c1ccc(CN2CCN(C(=O)CN3CCN4CCN5CCN(CC3)CC(=O)[O][Lu]([O]C(=O)C5)[O]C(=O)C4)CC2)cc1 [Conjugate 1]
Compound 1 Conc. in NCI-H460 Mouse Tumor [1]: 9.30 µM and 7.05 µM and 11.1 µM
level at time molar at 1 h [2, 10]: 3.36 µM
level at time molar at 1 h [2, 11]: 9.13 µM
level at time molar at 24 h ([3]; H460 (1), H460 study (1)): 1740 nM
level at time molar at 24 h ([3]; H460 (2), H460 study (2)): 2490 nM
Tumor:liver ratio, 24 h, H460 (1) (H460 tumor model mice; 24 h, H460 study (1)): 0.16
Tumor:kidney ratio, 24 h, H460 (2) (H460 tumor model mice; 24 h, H460 study (2)): 1.8
Tumor:liver ratio, 24 h, H460 (2) (H460 tumor model mice; 24 h, H460 study (2)): 1.2
Clearance from plasma (H460 tumor model mice; H460 and H69 tumor models): clear rapidly from plasma
Tumor retention (comparison) (H460 tumor model mice; [12]): similar
Tumor uptake (comparison) (H460 tumor model mice; [12]): noticeably higher than Conjugate 2
tumor:kidney ratio (H460 tumor model mice; H460 tumor model): around 2
tumor:liver ratios (H460 tumor model mice; at 24 h, across H460 and H69 tumor models): 0.1-1
Compound 1 Conc. in NCI-H460 Mouse Plasma ([4]; 1 h): 1.07 µM and 1.04 µM and 7.98 µM
Compound 1 Conc. in NCI-H460 Mouse Plasma ([4]; 24 h): 0.020 μM (2×) and 0.046 μM
Compound 1 Conc. in NCI-H460 Mouse Tumor ([4]; 24 h): 3.85 µM and 4.01 µM and 4.26 µM
Compound 1 Conc. in NCI-H460 Mouse Plasma ([4]; 48 h): 0.016 µM and 0.013 µM and 0.020 µM
Compound 1 Conc. in NCI-H460 Mouse Tumor ([4]; 48 h): 1.95 µM and 3.09 µM and 3.10 µM
level at time molar at 24 h [5, 10]: 29 nM
level at time molar at 48 h [5, 10]: 16 nM
level at time molar at 24 h [5, 11]: 4040 nM
level at time molar at 48 h [5, 11]: 2710 nM
t1/2 ([6]; analyte Conjugate 1): 1.45 H
t1/2 ([6]; analyte Lu from Conjugate 1): 0.56 H
Vd ([6]; rat, analyte Conjugate 1, read-out: Vss_obs): 0.483 L/kg
Vd ([6]; rat, analyte Conjugate 1, read-out: Vz_obs): 1.44 L/kg
AUC(0-t) ([6]; rat, analyte Conjugate 1): 7.31 µM·h
Cmax ([6]; rat, analyte Conjugate 1): 14.2 µM
AUC(0-inf) ([6]; rat, analyte Conjugate 1, read-out: AUC 0-inf_obs): 7.34 µM·h
clearance ([6]; rat, analyte Conjugate 1, read-out: Cl-obs): 11.1 mL/min/kg
Average Lu in Liver [7]: 23.85 % ID/g
Average Lu in kidney [7]: 1.00 % ID/g
Average Lu in tumor [7]: 1.28 % ID/g
Conjugate 1 Conc., Bone marrow ([8]; individual animals A1-A3): 0.063 µM and 0.664 µM and 0.838 µM
Conjugate 1 Conc., Kidney ([8]; individual animals A1-A3): 7.75 µM and 7.50 µM and 8.05 µM
Conjugate 1 Conc., Liver ([8]; individual animals A1-A3): 1.50 µM and 2.46 µM and 3.33 µM
Conjugate 1 Conc., Spleen ([8]; individual animals A1-A3): 0.148 µM and 0.134 µM and 0.232 µM
Lu from Conjugate 1 Conc., Bone marrow ([8]; individual animals A1-A3): 0.030 µM and 0.021 µM and 0.022 µM
Lu from Conjugate 1 Conc., Brain ([8]; individual animals A1-A3): <BLQ
Lu from Conjugate 1 Conc., Kidney ([8]; individual animals A1-A3): 3.93 µM and 4.14 µM and 4.44 µM
Lu from Conjugate 1 Conc., Liver ([8]; individual animals A1-A3): 2.34 µM and 2.25 µM and 3.47 µM
Lu from Conjugate 1 Conc., Spleen ([8]; individual animals A1-A3): 0.154 µM and 0.163 µM and 0.198 µM
Lu from Conjugate 1 Conc., Bone marrow, Mean ([8]; mean): 0.024 µM
Lu from Conjugate 1 Conc., Brain, Mean ([8]; mean): <BLQ
Lu from Conjugate 1 Conc., Kidney, Mean ([8]; mean): 4.17 µM
Lu from Conjugate 1 Conc., Spleen, Mean ([8]; mean): 0.172 µM
level at time molar ([8]; bone marrow, mean, read-out: Conjugate 1 Conc., Bone marrow, Mean): 522 nM
level at time molar ([8]; brain, individual animals A1-A3, read-out: Conjugate 1 Conc., Brain): 37 nM
level at time molar ([8]; brain, mean, read-out: Conjugate 1 Conc., Brain, Mean): 49 nM
level at time molar ([8]; kidney, mean, read-out: Conjugate 1 Conc., Kidney, Mean): 7770 nM
level at time molar ([8]; liver, mean, read-out: Conjugate 1 Conc., Liver, Mean): 2430 nM
level at time molar ([8]; spleen, mean, read-out: Conjugate 1 Conc., Spleen, Mean): 171 nM
Tumor:liver ratio, 24 h, H69 (H69 tumor model mice): 0.18
level at time molar at 24 h [9]: 1610 nM
